assay: yeast display, Sf9 membrane polyspecificity reagent, FACS + sequencing; frameworks hold sequencing errors
How it was run: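 A synthetic nanobody library was expressed on Saccharomyces cerevisiae BJ5465 by galactose induction for 36–48 hours. The library was stained for 1 hour at 4 °C with 10% biotinylated, detergent-solubilized Sf9 membrane reagent and enriched with streptavidin microbeads before FACS. Low and high (top ~1%) gates were set on anti-HA fluorescence for expression and streptavidin fluorescence for reagent binding, and each polyreactivity label reflects the gate of origin.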

| Sequence | polyreactivity (PSR sort gate) |
| --- | --- |
| QVQLVESGGGLVQAGGSLRLICAASGMTFYSYAMGWYRQAPGKERELVAAISATGGRTYYADSEKGRFTISRDNAKNTVYLQMNSLKPEDTEVYYCAAKSSYEYGYWGQGTQVTVSS | high polyreactivity |
| QVQLVESGGGLVQAGGSLRLICAASGNTFGYNAMVWYRQAPGKERELVASITLSGGSTYYADSVKGRFTISRDTAKNTVYLQMFCLKPEDTAVYYCNADTFQWWDIADVYVIVKYGYWGQGTQVTVSS | low polyreactivity |
| QVQLVESGGGLVQAGGSLRLICAASGNTFKYNAMGWYRQAPGKERELVAAITWRGTSTSYADSVKGRFTISRDNAKNTVYLQMNSLKAEDTAFYYSNAVYYWYGRVAYSFGYWGQGTQVTVSS | high polyreactivity |
| QVQLVESGGGLVQAGGSLRLICAASGNTFSVYTMGWYRQAPGKERELVAAISFRSGSTYYADSVKGRFTISRDNAKNTVYLLMNSLKPEDTAVYYCAAYVRQLQVVRGVSNYDSWGQGTQVTVSS | high polyreactivity |
| QVQLVESGGGLVQAGGSLRLICAASGNTLGPYAMGWYRQAPGKERELVAAITWSGGITDYADSVKGRFTISRDNAKNTVYLQMNSLKPEDTAVYYCNAGPSLGIFQGTSVGLRYDYWGQGTQVTVSS | low polyreactivity |
| QVQLVESGGGLVQAGGSLRLICAASGRICISNAMGWYRQAPGKERELVAAITWIGDRTYYADSVKGRFTISRDNAKNTVYLQMISLKPEDTAVYYCAADSYSPYTMDYWRQGTQVTVSS | high polyreactivity |
| QVQLVESGGGLVQAGGSLRLICAASGRIFDFYAMGWYRQAPGKERELVAAITNGGRTNYADSVKGRFTISRDNAKNTVYLQMNSLKPEDTAVYYCAARLAYWYYYAWRGPYYYWGQGTQVTVSS | high polyreactivity |
| QVQLVESGGGLVQAGGSLRLICAASGRIFDSYTMGWYRQAPGKERELVAAISRGGGSTYYADSVKGRFTISRDNAKNTVYLQMNSLKPEDTAVFYCAASSYLNSRFKFDYWGQGTQVTVSS | low polyreactivity |
| QVQLVESGGGLVQAGGSLRLICAASGRIFGYYAMGWYRQAPGKERELVAAIDGSDGTTYYADSVKGRFTISRDNAKNTVYFHMNSLKPEDTAVYYCAKDNSLPDYDYWGQGTQVTVSS | low polyreactivity |
| QVQLVESGGGLVQAGGSLRLICAASGRIFLENALGWYRQAPGKERELVATISNGGSTSYADSVKGRFTISRDNAKNKVYLQMISLKPEDTSVYYCAADYCWPYILYGYDYWGEGTQVTVSS | low polyreactivity |
| QVQLVESGGGLVQAGGSLRLICAASGRIFLYYAMGWYRQAPGKERELVAAITRGGGTTYADSVKGRFTISRDNAKNTVYLQMNSLKPEDTAVYYCAKRYSYYPGFDYWGQGTQVTVSS | high polyreactivity |
| QVQLVESGGGLVQAGGSLRLICAASGRIFNRYAMGWYRQAPGNERELVAAITWSGDRTNYADSVKGRFTISRDNAKNTVYLLMNSLKPEDTAVYYCAAADGIIESDYWGQGTQVTVSS | low polyreactivity |
| QVQLVESGGGLVQAGGSLRLICAASGRIFNYNYMGLYRQAPGKERELLAAISWRGGSTYYADSVKGRFTISRDNAKNTVYLQMKSLKPEDTAVYYCNKRTRYSTGSRYDYWGQGTQVTVSS | high polyreactivity |
| QVQLVESGGGLVQAGGSLRLICAASGRIFRANARGWYRQAPGKERELVATIRNSGGITYYADSVKGRFTISRDHAKNTVYLQMNSLKPEDTALYYCGNLGRYCYDYWGQGTQVTVSS | high polyreactivity |
| QVQLVESGGGLVQAGGSLRLICAASGRIFRINAMGWYRQAPGKEREFVAAISWRSGSTYYADSVKGRFTISRDNAKNSVYLQMNSLKPEDTAVYYCAAKLYGYRSGYYYWGQGTQVTVSS | high polyreactivity |
| QVQLVESGGGLVQAGGSLRLICAASGRIFRPYAMGWYRQAPGKERELVAAISSSGGSTYYADSVKGRFTISRDNAKNTVYLQMNSLKPEDTAVYYCATYFARGRRYDYWGQGTQVTVSS | high polyreactivity |

| Sequence | polyreactivity (PSR sort gate) |
| --- | --- |
| QVQLVESGGGLVQAGGSLRLICAASGRIFSSYAMGWYRQAPGKERELVAAISRGGGRTYYADSVKGRFTISRDNAKNTVYLQMNSLKPEDTAVYYCAVRLYYSIRYYYWGQGTQVTVSS | high polyreactivity |
| QVQLVESGGGLVQAGGSLRLICAASGRIFSYYAMGWYRQAPGKERELVARITSRGASTYYADSVKGRFTISRDNAKNTVYLQMNSLKPEDTAVYYCAARYIPIQYPSYRTWGGYSWGQGTQVTVSS | high polyreactivity |
| QVQLVESGGGLVQAGGSLRLICAASGRIFVYNAKGSYSQAPGKDRELVATITSGGSTYYSDSVKGRFTISRDNAKNTVYFQMNSLKPEDTAVYYCAARRWYVHYFAYGYWGQGTQVTVSS | low polyreactivity |
| QVQLVESGGGLVQAGGSLRLICAASGRIFYGYAMGWYRPAPGKEREFVAAITVSAGSTYYADSVKGRFTISRDNAKNTVYLQMNSLKPEDTAVYYCAAKRYVYPSYRFDYWGQGTQVTVSS | low polyreactivity |
| QVQLVESGGGLVQAGGSLRLICAASGRIFYYYTMGWYRQAPGKERELVAAITRSGSSTYADSVKGRFTISRDNAKNTVYLQMNSLKPEDTAVYYCAADYIRRYDYWGQGTQVTVSS | low polyreactivity |
| QVQLVESGGGLVQAGGSLRLICAASGRIVEGYAMGWYRQAPGKERELDAAISSGGSTYYADSVKGRFTISRDNAKNTVYLQMNSLKPEDTAVYYCNAAHSVVSHGPGAGLEMDYWGEGTQVTVSS | low polyreactivity |
| QVQLVESGGGLVQAGGSLRLICAASGRNFTKYAMGLYRQAPGKERELVAAINFRGDRTYYADSVKGRYTISRDNAKNTVYLQMNSLKPEDTAVYYCAAEWSTYWLFNYEYWGQGTQVTVSS | high polyreactivity |
| QVQLVESGGGLVQAGGSLRLICAASGRSFNLYAMGWYRQAPGKERELVAAISYSGGRTYSADSVKGRFTISRDNAKNTVYLQMNSLKPEDTAVYYCNTVRGSVRQAGVGYEYWGQGTQVTVSS | high polyreactivity |
| QVQLVESGGGLVQAGGSLRLICAASGRTFCAYAMGWYRQAPGKERELVAAITTSGGSTNYADSVKGRFTISRDTAKYTVYLEMKSLKPEETAVYYCNADPTYHVVNGVGFWGQGTQVTVSS | low polyreactivity |
| QVQLVESGGGLVQAGGSLRLICAASGRTFFPYAMGWYRQAPGKEREFFAAISTRGGSTYYADSVKGRFTISRDNAKNTVYLQMNSLKPEDTAVYYCAARFHKKGYWVYRMDYWGQGTQVTVSS | high polyreactivity |
| QVQLVESGGGLVQAGGSLRLICAASGRTFGGNAMGWYRQAPGKERELVASITSRGGTTYYADSVKGRFTISRDNAKNTVYLQMNSLKPEDTAVYYCAALRRSSFGYWGQGTQVTVSS | high polyreactivity |
| QVQLVESGGGLVQAGGSLRLICAASGRTFGVYSMGWYRQAPGKERELVAAISATGGSTYYADSVKGRFTISRDNAKNTVYLQMNSLKPEDTAVYYCARGGTTLYWGQGTQVTVSS | high polyreactivity |
| QVQLVESGGGLVQAGGSLRLICAASGRTFQYNAMGWYRQAPGKERELVAAISARAGSTYYADSVKGRFTISRDNAKNTVYLQMNRLKPEDTAVYYCAARAWTRSVPYGFYYWGQGTQVTVSS | high polyreactivity |
| QVQLVESGGGLVQAGGSLRLICAASGRTFRIYAMGWYRQEPGKDRQLVAAIRWSGGTTYYADSVKGRFTISRDYAKNTVYLQMNSLKPDDTSVYYCAADSTNRFDYWGQGTQVTVSS | high polyreactivity |
| QVQLVESGGGLVQAGGSLRLICAASGRTFRYNAMGWYRQAPGKERELVAAITQSGGSTYYADSVKGRFTISRDNAKNTVYLQMNSLKPEDTAVYYCAKVRERINYDYWGQGTQVTVSS | low polyreactivity |
| QVQLVESGGGLVQAGGSLRLICAASGRTFSGYAMGWYRPAPGKERELVAAINWSTGSTYYADSVKGRFTISRDNAQNTVYLQMNSLKPEDTAVYYCAAGYYYYGNGRIVQYEYWGQGTQVTVSS | high polyreactivity |
